Reference: paper PMC10679500, “Posttranslational modification and heme cavity architecture of human eosinophil peroxidase—insights from first crystal structure and biochemical characterization” (The Journal of Biological Chemistry, 2023)

Biological target: T1, eosinophil peroxidase heavy chain (human, UniProt P11678 251-715, Glu380 ester-linked to the heme cofactor (hydroxymethyl group on pyrrole ring A); N-glycans at Asn327 and Asn363)
T1 construct: human eosinophil peroxidase (EPO), C-terminal heavy chain of the mature enzyme; G250/V251-T715; N-terminus heterogeneous (G250 or V251); first resolved residue in the crystal is Val251; One of the two polypeptides of mature leukocyte EPO; part of the sample may begin at G250; A mixture of glycoforms was crystallized; also called EPO H-chain; HC
T1 sequence (looked up): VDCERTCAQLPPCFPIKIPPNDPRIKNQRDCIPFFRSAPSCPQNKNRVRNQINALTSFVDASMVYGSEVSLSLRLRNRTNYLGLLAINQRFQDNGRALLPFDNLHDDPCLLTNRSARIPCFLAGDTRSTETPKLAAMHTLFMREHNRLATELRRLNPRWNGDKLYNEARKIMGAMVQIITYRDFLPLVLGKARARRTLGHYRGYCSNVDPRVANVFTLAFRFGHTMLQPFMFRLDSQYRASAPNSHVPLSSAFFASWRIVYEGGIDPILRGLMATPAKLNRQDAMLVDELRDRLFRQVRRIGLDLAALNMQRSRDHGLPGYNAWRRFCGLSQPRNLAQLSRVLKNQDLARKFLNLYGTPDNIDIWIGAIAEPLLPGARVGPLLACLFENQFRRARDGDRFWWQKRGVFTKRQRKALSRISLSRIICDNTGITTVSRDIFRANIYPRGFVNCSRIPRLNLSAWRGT
Experiment: crystal structure; mixture of EPO glycoforms from human leukocytes, 10 mg/ml in 5 mM phosphate pH 7.0; crystallized in 0.2 M trisodium citrate pH 4.1, 20% (w/v) PEG, vapor diffusion, 22 °C; 1.6 Å; one monomer per asymmetric unit
Settings: both partners purified

binding result: binds
B1: eosinophil peroxidase light chain (domain or fragment)
chain: not shown
modifications: Asp232 ester-linked to the heme cofactor (hydroxymethyl group on pyrrole ring C)
notes: human eosinophil peroxidase (EPO), N-terminal light chain of the mature enzyme after removal of signal peptide, propeptide (18-139) and the peptide V/AFTA/G; R140-R244/V245; C-terminus heterogeneous by MS (77.2% arginine, 23.8% valine as terminal residue); last resolved residue in the crystal is Arg244; One of the two polypeptides of mature leukocyte EPO; a minor part of the sample ends at V245; …
